Reference: the Immune Epitope Database (IEDB)

Assays:
[1] = biological target: HLA-B*15:01; experiment: IEDB peptide-MHC binding, purified MHC/direct/fluorescence; filed as Kd, often an IC50 or EC50 that approximates it; ≥ and ≤ were set here for values at or beyond the usual limits of such assays
[2] = biological target: HLA-A*02:01; experiment: as above
[3] = biological target: HLA-A*01:01; experiment: as above
[4] = biological target: HLA-B*08:01; experiment: as above
[5] = biological target: HLA-A*03:01; experiment: as above
[6] = biological target: HLA-A*31:01; experiment: as above; settings: source organism: Influenza A virus (A/turkey/Minnesota/511/1978(H9N2))
[7] = biological target: HLA-A*11:01; experiment: as above
[8] = biological target: HLA-B*07:02; experiment: as above
[9] = biological target: HLA-A*69:01; experiment: as above
[10] = biological target: HLA-A*26:01; experiment: as above; settings: source organism: Influenza A virus (A/shorebird/Delaware/141/2002(H9N9))
[11] = biological target: HLA-B*58:01; experiment: as above
[12] = biological target: HLA-B*27:05; experiment: as above
[13] = biological target: HLA-A*24:02; experiment: as above
[14] = biological target: HLA-B*44:02; experiment: as above
[15] = biological target: HLA-B*40:01; experiment: as above
[16] = biological target: HLA-A*68:02; experiment: as above; settings: source organism: Zaire ebolavirus
[17] = biological target: HLA-A*24:03; experiment: as above; settings: source organism: Zaire ebolavirus
[18] = biological target: HLA-A*02:19; experiment: as above; settings: source organism: Zaire ebolavirus
[19] = biological target: HLA-A*02:03; experiment: as above; settings: source organism: Zaire ebolavirus
[20] = biological target: HLA-A*02:12; experiment: as above; settings: source organism: Zaire ebolavirus
[21] = biological target: HLA-A*02:16; experiment: as above; settings: source organism: Zaire ebolavirus
[22] = biological target: HLA-A*02:11; experiment: as above; settings: source organism: Zaire ebolavirus
[23] = biological target: HLA-B*15:01; experiment: IEDB peptide-MHC binding, purified MHC/competitive/fluorescence; ≥ and ≤ were set here for values at or beyond the usual limits of such assays
[24] = biological target: HLA-A*02:01; experiment: as above
[25] = biological target: HLA-A*24:02; experiment: as above; settings: source organism: Zaire ebolavirus
[26] = biological target: HLA-B*15:17; experiment: IEDB peptide-MHC binding, purified MHC/competitive/fluorescence; filed as Kd, often an IC50 or EC50 that approximates it; ≥ and ≤ were set here for values at or beyond the usual limits of such assays; settings: source organism: Zaire ebolavirus
[27] = biological target: HLA-A*02:01; experiment: as above; settings: source organism: Zaire ebolavirus
[28] = biological target: HLA-A*69:01; experiment: as above; settings: source organism: Zaire ebolavirus
[29] = biological target: HLA-B*46:01; experiment: as above; settings: source organism: Zaire ebolavirus
[30] = biological target: HLA-A*26:01; experiment: as above; settings: source organism: Zaire ebolavirus
[31] = biological target: HLA-B*39:01; experiment: as above; settings: source organism: Zaire ebolavirus
[32] = biological target: HLA-B*18:01; experiment: as above; settings: source organism: Zaire ebolavirus
[33] = biological target: HLA-B*27:03; experiment: as above; settings: source organism: Zaire ebolavirus
[34] = biological target: HLA-B*51:01; experiment: as above; settings: source organism: Zaire ebolavirus
[35] = biological target: HLA-B*57:01; experiment: as above; settings: source organism: Zaire ebolavirus
[36] = biological target: HLA-A*03:01; experiment: IEDB peptide-MHC binding, purified MHC/competitive/fluorescence; ≥ and ≤ were set here for values at or beyond the usual limits of such assays
[37] = biological target: HLA-A*11:01; experiment: as above
[38] = biological target: HLA-B*07:02; experiment: as above
[39] = biological target: HLA-B*08:01; experiment: IEDB peptide-MHC binding, purified MHC/competitive/fluorescence; filed as Kd, often an IC50 or EC50 that approximates it; ≥ and ≤ were set here for values at or beyond the usual limits of such assays; settings: source organism: Influenza A virus (A/Osaka/930/88(H1N1))
[40] = biological target: HLA-B*08:01; experiment: IEDB peptide-MHC binding, purified MHC/competitive/fluorescence; ≥ and ≤ were set here for values at or beyond the usual limits of such assays; settings: source organism: Zaire ebolavirus
[41] = biological target: HLA-B*08:02; experiment: IEDB peptide-MHC binding, purified MHC/direct/fluorescence; filed as Kd, often an IC50 or EC50 that approximates it; ≥ and ≤ were set here for values at or beyond the usual limits of such assays; settings: source organism: Influenza A virus(A/swine/Shandong/fNY/2003(H9N2))
[42] = biological target: HLA-B*46:01; experiment: as above
[43] = biological target: HLA-A*01:01; experiment: IEDB peptide-MHC binding, purified MHC/competitive/fluorescence; ≥ and ≤ were set here for values at or beyond the usual limits of such assays
[44] = source organism: Influenza A virus (A/Puerto Rico/8/34/Mount Sinai(H1N1))
[45] = source organism: Influenza A virus (A/turkey/Minnesota/511/1978(H9N2))
[46] = source organism: Zaire ebolavirus
[47] = source organism: Vaccinia virus Copenhagen
[48] = source organism: Influenza A virus (A/egret/Hong Kong/757.3/2002(H5N1))
[49] = source organism: Sudan ebolavirus
[50] = source organism: Escherichia coli O157:H7

**Q.** DLLENLQAY was tested. Which Kd [1, 44] did it give?
**A.** 2690 nM

**Q.** And the Kd [2, 45]?
**A.** ≥ 20 µM

**Q.** And the Kd [3, 45]?
**A.** ≥ 20 µM

**Q.** And the Kd [4, 45]?
**A.** ≥ 20 µM

**Q.** And the Kd [5, 45]?
**A.** ≥ 20 µM

**Q.** And the Kd [6]?
**A.** ≥ 20 µM

**Q.** What about the Kd [7, 45] of the same sequence?
**A.** ≥ 20 µM

**Q.** And the Kd [8, 45]?
**A.** ≥ 20 µM

**Q.** And the Kd [9, 45]?
**A.** ≥ 20 µM

**Q.** What about the Kd [10] of the same sequence?
**A.** 115 nM

**Q.** What about the Kd [11, 45] of the same sequence?
**A.** ≥ 20 µM

**Q.** And the Kd [12, 45]?
**A.** ≥ 20 µM

**Q.** And the Kd [13, 45]?
**A.** ≥ 20 µM

**Q.** And the Kd [14, 45]?
**A.** ≥ 20 µM

**Q.** And the Kd [15, 45]?
**A.** ≥ 20 µM

**Q.** Which results are given for GLIQYPTAW?
**A.** Kd [1, 46]: 2200 nM; Kd [16]: ≥ 20 µM; Kd [17]: ≥ 20 µM; Kd [5, 46]: ≥ 20 µM; Kd [18]: ≥ 20 µM; Kd [19]: ≥ 20 µM; Kd [20]: ≥ 20 µM; Kd [11, 46]: 0.5 µM; Kd [21]: ≥ 20 µM; Kd [22]: ≥ 20 µM; IC50 [23, 46]: ≥ 109 µM; IC50 [24, 46]: 3.1 µM; IC50 [25]: 13.2 µM; Kd [26]: ≥ 20 µM; Kd [27]: ≥ 20 µM; Kd [28]: ≥ 20 µM; Kd [29]: ≥ 20 µM; Kd [30]: ≥ 20 µM; Kd [31]: ≥ 20 µM; Kd [32]: ≥ 20 µM; Kd [33]: ≥ 20 µM; Kd [34]: ≥ 20 µM; Kd [35]: ≥ 20 µM

**Q.** With GQHIEGRQT as the sequence, how does the IC50 [23, 46] read?
**A.** ≥ 148 µM

**Q.** Which results are given for AIITPIVFY?
**A.** IC50 [23, 47]: 6.37 µM; IC50 [24, 47]: ≥ 122 µM; IC50 [36, 47]: ≥ 153 µM; IC50 [37, 47]: 0.941 µM

**Q.** WPVMNHKNK was tested. Which IC50 [36, 46] did it give?
**A.** ≥ 180 µM

**Q.** And the IC50 [37, 46]?
**A.** ≥ 185 µM

**Q.** What about the IC50 [38, 46] of the same sequence?
**A.** 53.1 µM

**Q.** Which Kd [39] does the source give for KLERRMENL here?
**A.** ≥ 20 µM

**Q.** For LFQRTFSIP, which IC50 [24, 46] is on record?
**A.** ≥ 72.9 µM

**Q.** What about the IC50 [40] of the same sequence?
**A.** ≥ 270 µM

**Q.** What about the IC50 [25] of the same sequence?
**A.** 1.04 µM

**Q.** EEFTMVGRR was tested. Which Kd [1, 48] did it give?
**A.** ≥ 20000 nM

**Q.** What about the Kd [41] of the same sequence?
**A.** ≥ 20 µM

**Q.** What about the Kd [3, 48] of the same sequence?
**A.** ≥ 20 µM

**Q.** And the Kd [4, 48]?
**A.** ≥ 20 µM

**Q.** What about the Kd [5, 44] of the same sequence?
**A.** 1.01 µM

**Q.** And the Kd [8, 48]?
**A.** ≥ 20 µM

**Q.** And the Kd [9, 48]?
**A.** ≥ 20 µM

**Q.** And the Kd [42, 48]?
**A.** ≥ 20 µM

**Q.** And the Kd [11, 48]?
**A.** ≥ 20 µM

**Q.** What about the Kd [12, 48] of the same sequence?
**A.** ≥ 20 µM

**Q.** What about the Kd [13, 48] of the same sequence?
**A.** ≥ 20 µM

**Q.** What about the Kd [14, 48] of the same sequence?
**A.** ≥ 20 µM

**Q.** How did the IC50 [24, 46] turn out when MVIFRLMRT was run?
**A.** 0.478 µM

**Q.** And the IC50 [40]?
**A.** ≥ 77.6 µM

**Q.** What about the IC50 [36, 46] of the same sequence?
**A.** ≥ 96.6 µM

**Q.** And the IC50 [37, 46]?
**A.** ≥ 177 µM

**Q.** With VIFRLMRTN as the sequence, how does the IC50 [23, 46] read?
**A.** ≥ 175 µM

**Q.** And the IC50 [24, 46]?
**A.** 42.7 µM

**Q.** What about the IC50 [36, 46] of the same sequence?
**A.** 7.47 µM

**Q.** And the IC50 [37, 46]?
**A.** ≥ 90.6 µM

**Q.** What about the IC50 [25] of the same sequence?
**A.** ≥ 150 µM

**Q.** What does the source list for RSRRQTNTK?
**A.** IC50 [36, 49]: 2.27 µM; IC50 [37, 49]: 1.47 µM; IC50 [38, 49]: 8.84 µM

**Q.** For STSPRMLTP, which IC50 [37, 46] is on record?
**A.** 44.1 µM

**Q.** What about the IC50 [38, 46] of the same sequence?
**A.** ≥ 168 µM

**Q.** What about the IC50 [25] of the same sequence?
**A.** 69.9 µM

**Q.** ISDRATRKY was tested. Which IC50 [23, 49] did it give?
**A.** 57.6 µM

**Q.** What about the IC50 [43, 49] of the same sequence?
**A.** 1890 nM

**Q.** What about the IC50 [36, 49] of the same sequence?
**A.** 38.6 µM

**Q.** What about the IC50 [37, 49] of the same sequence?
**A.** 18.8 µM

**Q.** VTLDGQQFY was tested. Which IC50 [23, 46] did it give?
**A.** 53.6 µM

**Q.** What about the IC50 [24, 46] of the same sequence?
**A.** ≥ 226 µM

**Q.** What about the IC50 [43, 46] of the same sequence?
**A.** 3880 nM

**Q.** And the IC50 [36, 46]?
**A.** ≥ 105 µM

**Q.** What about the IC50 [37, 46] of the same sequence?
**A.** 4.92 µM

**Q.** What about the IC50 [25] of the same sequence?
**A.** ≥ 192 µM

**Q.** EGHGFRFEV was tested. Which IC50 [24, 46] did it give?
**A.** 28.1 µM

**Q.** And the IC50 [40]?
**A.** 69.3 µM

**Q.** How did the Kd [1, 50] turn out when PLKVKDIPF was run?
**A.** 196 nM

**Q.** What about the Kd [2, 50] of the same sequence?
**A.** ≥ 20 µM

**Q.** What about the Kd [3, 50] of the same sequence?
**A.** ≥ 20 µM

**Q.** And the Kd [5, 50]?
**A.** ≥ 20 µM

**Q.** And the Kd [7, 50]?
**A.** ≥ 20 µM

**Q.** And the Kd [8, 50]?
**A.** ≥ 20 µM

**Q.** What about the Kd [42, 50] of the same sequence?
**A.** ≥ 20 µM

**Q.** And the Kd [11, 50]?
**A.** ≥ 20 µM

**Q.** What about the Kd [12, 50] of the same sequence?
**A.** ≥ 20 µM

**Q.** What about the Kd [13, 50] of the same sequence?
**A.** ≥ 20 µM

**Q.** And the Kd [14, 50]?
**A.** ≥ 20 µM

**Q.** What about the Kd [15, 50] of the same sequence?
**A.** ≥ 20 µM
